This passage reports Kd and IC50 results from the Immune Epitope Database (IEDB).

The target in assay [1] is HLA-A*01:01. Briefly: IEDB peptide-MHC binding, purified MHC/direct/fluorescence; filed as Kd, often an IC50 or EC50 that approximates it; ≥ and ≤ were set here for values at or beyond the usual limits of such assays. To be noted: source organism: Influenza A virus (A/Duck/Shantou/2134/00(H9N2)).
Assay [2] deals with HLA-A*02:01. The assay is described as above. Particulars: source organism: Influenza A virus (A/Duck/Shantou/2134/00(H9N2)).
The target in assay [3] is HLA-A*03:01. The assay is described as above. To be noted: source organism: Influenza A virus (A/Duck/Shantou/2134/00(H9N2)).
Assay [4] deals with HLA-A*11:01. Described as above. To be noted: source organism: Influenza A virus (A/Duck/Shantou/2134/00(H9N2)).
Assay [5] concerns the target HLA-A*24:02. The description is as above. To be noted: source organism: Influenza A virus (A/Duck/Shantou/2134/00(H9N2)).
For assay [6], the target named is HLA-A*26:01. Described as above. To be noted: source organism: Influenza A virus (A/Taiwan/2/2006(H1N1)).
Assay [7] deals with HLA-A*69:01. The assay is described as above. To be noted: source organism: Influenza A virus (A/Duck/Shantou/2134/00(H9N2)).
Assay [8] has as its target HLA-B*07:02. Described as above. To be noted: source organism: Influenza A virus (A/Duck/Shantou/2134/00(H9N2)).
Assay [9] deals with HLA-B*08:01. The assay is described as above.
Assay [10] addresses HLA-B*08:02. The description is as above.
The target of assay [11] is HLA-B*15:01. Described as above. To be noted: source organism: Influenza A virus (A/Puerto Rico/8/34/Mount Sinai(H1N1)).
The target of assay [12] is HLA-B*27:05. The description is as above. Particulars: source organism: Influenza A virus (A/Duck/Shantou/2134/00(H9N2)).
Assay [13] addresses HLA-B*40:01. The assay is described as above. To be noted: source organism: Influenza A virus (A/Duck/Shantou/2134/00(H9N2)).
Assay [14] concerns the target HLA-B*44:02. The description is as above. Particulars: source organism: Influenza A virus (A/Duck/Shantou/2134/00(H9N2)).
Assay [15] addresses HLA-B*58:01. The assay is described as above. Particulars: source organism: Influenza A virus (A/Duck/Shantou/2134/00(H9N2)).
In assay [16] the target is HLA-A*02:01. Briefly: IEDB peptide-MHC binding, purified MHC/competitive/fluorescence; filed as Kd, often an IC50 or EC50 that approximates it; ≥ and ≤ were set here for values at or beyond the usual limits of such assays. To be noted: source organism: Vibrio parahaemolyticus AQ3810.
Assay [17] has as its target HLA-A*02:03. The assay is described as above. Particulars: source organism: Vibrio parahaemolyticus AQ3810.
Assay [18] has as its target HLA-A*02:11. The assay is described as above. Particulars: source organism: Vibrio parahaemolyticus AQ3810.
Assay [19] addresses HLA-A*02:12. Described as above. To be noted: source organism: Vibrio parahaemolyticus AQ3810.
Assay [20] has as its target HLA-A*02:16. The description is as above. To be noted: source organism: Vibrio parahaemolyticus AQ3810.
In assay [21] the target is HLA-A*02:19. Described as above. Particulars: source organism: Vibrio parahaemolyticus AQ3810.
Assay [22] addresses HLA-A*24:03. The assay is described as above. To be noted: source organism: Vibrio parahaemolyticus AQ3810.
The target of assay [23] is HLA-A*26:01. The description is as above. To be noted: source organism: Vibrio parahaemolyticus AQ3810.
Assay [24] deals with HLA-A*31:01. The assay is described as above. To be noted: source organism: Vibrio parahaemolyticus AQ3810.
For assay [25], the target named is HLA-A*68:02. The description is as above. To be noted: source organism: Vibrio parahaemolyticus AQ3810.
The target in assay [26] is HLA-A*69:01. The assay is described as above. To be noted: source organism: Vibrio parahaemolyticus AQ3810.
Assay [27] deals with HLA-B*15:01. The assay is described as above.
The target of assay [28] is HLA-B*15:17. The assay is described as above. Particulars: source organism: Vibrio parahaemolyticus AQ3810.
The target in assay [29] is HLA-B*18:01. Described as above. Particulars: source organism: Vibrio parahaemolyticus AQ3810.
Assay [30] concerns the target HLA-B*27:03. The assay is described as above. To be noted: source organism: Vibrio parahaemolyticus AQ3810.
In assay [31] the target is HLA-B*39:01. Described as above. To be noted: source organism: Vibrio parahaemolyticus AQ3810.
The target in assay [32] is HLA-B*46:01. The description is as above. To be noted: source organism: Vibrio parahaemolyticus AQ3810.
Assay [33] addresses HLA-B*51:01. The description is as above. To be noted: source organism: Vibrio parahaemolyticus AQ3810.
Assay [34] concerns the target HLA-B*57:01. Described as above. To be noted: source organism: Vibrio parahaemolyticus AQ3810.
The target in assay [35] is HLA-A*01:01. Briefly: IEDB peptide-MHC binding, purified MHC/competitive/fluorescence; ≥ and ≤ were set here for values at or beyond the usual limits of such assays. Particulars: source organism: Zaire ebolavirus.
The target of assay [36] is HLA-A*24:02. The description is as above. Particulars: source organism: Zaire ebolavirus.
Assay [37] concerns the target HLA-A*26:03. Briefly: IEDB peptide-MHC binding, purified MHC/direct/fluorescence; filed as Kd, often an IC50 or EC50 that approximates it; ≥ and ≤ were set here for values at or beyond the usual limits of such assays. Particulars: source organism: Fowlpox virus.
Assay [38] addresses HLA-B*15:42. The assay is described as follows: IEDB peptide-MHC binding, purified MHC/competitive/fluorescence; filed as Kd, often an IC50 or EC50 that approximates it; ≥ and ≤ were set here for values at or beyond the usual limits of such assays. To be noted: source organism: Yersinia pestis Nepal516.
For assay [39], the target named is HLA-B*40:01. The assay is described as above. Particulars: source organism: Yersinia pestis Nepal516.
The target of assay [40] is HLA-B*45:06. The description is as above. To be noted: source organism: Yersinia pestis Nepal516.
Assay [41] deals with HLA-B*83:01. The assay is described as above. Particulars: source organism: Yersinia pestis Nepal516.
Assay [42] has as its target HLA-C*04:01. The assay is described as above. To be noted: source organism: Yersinia pestis Nepal516.
Assay [43] has as its target HLA-A*02:01. The assay is described as follows: IEDB peptide-MHC binding, purified MHC/competitive/fluorescence; ≥ and ≤ were set here for values at or beyond the usual limits of such assays. Particulars: source organism: Zaire ebolavirus.
Assay [44] addresses HLA-B*15:01. The assay is described as above. Particulars: source organism: Zaire ebolavirus.
[45] abbreviates: source organism: Giardia lamblia ATCC 50803.

In the case of ASRGLWDSF, the Kd in assay [1], in [2], in [3], in assay [4], in [5] and in assay [6] was not below 20 µM each time. For the same sequence, the Kd in assay [7] is not below 20 µM; in assay [8] it was not below 20 µM; in assay [9] (source organism: Influenza A virus (A/Duck/Shantou/2134/00(H9N2))), not below 20 µM; in assay [10] (source organism: Influenza A virus (A/Taiwan/2/2006(H1N1))) it was not below 20 µM; in assay [11] it was 0.891 µM; in assay [12], not below 20 µM. In addition, the Kd is not below 20 µM in assay [13], not below 20 µM in assay [14] and not below 5 µM in assay [15].
As for HFIYHKREK, the Kd in assay [16], in assay [17], in assay [18], in assay [19], in assay [20] and in [21] was not below 20 µM throughout. The Kd in assay [22] is not below 20 µM; in assay [23], not below 20 µM; in assay [24] it was 0.0188 µM; in assay [25], not below 20 µM; in [26], not below 20 µM; in [27] (source organism: Vibrio parahaemolyticus AQ3810) it was not below 20 µM. Further, the Kd in assay [28], in [29], in [30], in assay [31], in assay [32] and in assay [33] was not below 20 µM throughout. For the same sequence, the Kd in assay [34] is not below 20 µM.
For HKEGAFFLY, the IC50 was not below 136 µM in assay [35] and not below 149 µM in [36].
In the case of HVFVCGNNM, the Kd in assay [37] came to 0.076 µM. This lies in the double-digit nanomolar range.
KCRLRMDKL showed a Kd in [10] (source organism: Dengue virus 2 Thailand/16681/84) not below 20 µM.
For VEMQLAVVI, the equilibrium dissociation constant (Kd) in assay [27] (source organism: Yersinia pestis Nepal516) was not below 20 µM; in [38] it was not below 5 µM; in assay [39], 0.0079 µM; in assay [40], not below 5 µM; in assay [41], not below 5 µM; in [42], not below 5 µM.
YLEGHGFRF: the IC50 in [35] is not below 76.3 µM; in assay [43] it was 0.403 µM; in assay [36] it was 0.18 µM; in assay [44], 17.6 µM.
For the sequence YSKIRGAAL, the Kd in assay [9] (setting [45]) amounted to 0.027 µM; in assay [10] (setting [45]), 0.445 µM.
